The target in this experiment is T1, RAGE-Fc chimera protein (UniProt Q15109 23-342).
T1 construct: RAGE, recombinant Fc chimera BioTechne Cat# 1145-RG; As far as I recall the catalogue product is the human RAGE extracellular domain fused to human IgG1 Fc; source: bought: BioTechne
Kind of experiment: BLI; RAGE-Fc (15 μg/mL) immobilised on anti-IgG (AHC) biosensors; HMGB1 constructs 0–25 μM in solution; 200 s association/dissociation. Particulars: both partners purified.

T1 sequence (Q15109 23-342, change not shown): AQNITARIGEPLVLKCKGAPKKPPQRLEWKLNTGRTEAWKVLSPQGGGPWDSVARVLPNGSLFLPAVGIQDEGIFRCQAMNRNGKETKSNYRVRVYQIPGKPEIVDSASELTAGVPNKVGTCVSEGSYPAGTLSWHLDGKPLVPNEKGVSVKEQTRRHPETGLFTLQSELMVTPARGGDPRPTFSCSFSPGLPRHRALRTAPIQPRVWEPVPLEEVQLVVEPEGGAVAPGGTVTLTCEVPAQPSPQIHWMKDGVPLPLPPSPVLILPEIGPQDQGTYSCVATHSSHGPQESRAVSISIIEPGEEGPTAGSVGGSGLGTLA

B1: dBB12L (FR-HMGB1 89–174::89–174) (other)
chain: KDPNAPKRPPSAFFLFCSEYRPKIKGEHPGLSIGDVAKKLGEMWNNTAADDKQPYEKKAAKLKEKYEKDIAAYRAKGKPDAAKKGVKDPNAPKRPPSAFFLFCSEYRPKIKGEHPGLSIGDVAKKLGEMWNNTAADDKQPYEKKAAKLKEKYEKDIAAYRAKGKPDAAKKGV
modifications: fully reduced Cys105 (printed numbering) in both copies; printed n = entry n+1 (C22/C44/C105 = C23/C45/C106 in P09429); direct tandem fusion, with native flanks acting as the linker
For B1, binding was characterised by a dissociation constant (Kd) of 5.5 µM and the koff (in general, the rate constant with which the complex falls apart) came to 0.206 s⁻¹.

The values are drawn from PMC13486833, “Engineered HMGB1 construct with tandem Box B domains promotes tissue regeneration without potential for inflammation” (iScience, 2026).
